± gives the uncertainty stated by the source.
Assay: self-splicing fitness, log relative to wild type (ln ratio); higher = more splicing; Tetrahymena group I intron in knt gene, E. coli kanamycin selection, DiMSum; sequences stand for … in CUCUCU…GGAGGGAAAAGUUAUCAGGCAUGCACCUGGUAGCUAGUCUUUAAACCAAUAGAUUGCAUCGGUUUAAAAGGCAAGACCGUCAAAUUGCGGGAAAGGGGUCAACAGCCGUUCAGUACCAAGUCUCAGGGGAAACUUUGAGAUGGCCUUGCAAAGGGUAUGGUAAUAAGCUGACGGACAUGGUCCUAACCACGCAGCCAAGUCCUAAGUCAACAGAUCUUCUGUUGAUAUGGAUGCAGUUCACAGACUAAAUGUCGGUCGGGGAAGAUGUAUUCUUCUCAUAAGAUAUAGUCGGACCUCUCCUUAAUGGGAGCUAGCGGAUGAAGUGAUGCAACACUGGAGCCGCUGGGAACUAAUUUGUAUGCGAAAGUAUAUUGAUUAGUUUUGGAGUACUCGUGGUCG
How it was run: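 A randomised library covering all eight P1ex-region intron nucleotides was built with the intron in the knt kanamycin-resistance gene on pET-22b(+) and held in E. coli BL21(DE3). Cells were grown overnight at 37°C or 30°C on LB agar, with or without 25 μg/mL kanamycin, plus 100 μg/mL carbenicillin, 50 μM IPTG and 0.2% rhamnose, and pooled colonies were amplicon-sequenced on an Illumina HiSeq 2500. DiMSum fitness is the error-weighted combination of wild-type-normalised replicate fold changes, kanamycin versus none.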

Sequence | self-splicing fitness (ln) (30 °C) | self-splicing fitness (ln) (37 °C)
CCAGAGCAAUAUUACGCUUU | -3.36 ± 0.27 | -1.71 ± 0.17
AGCGAGCAAUAUUACGGUCA | -2.05 ± 0.12 | -0.626 ± 0.11
UACCAGCAAUAUUACGGGCC | -2.22 ± 0.1 | -1.2 ± 0.11
AACCAGCAAUAUUACGAUAU | -0.891 ± 0.057 | -0.0726 ± 0.089
CGGCAGCAAUAUUACGGUCG | -3.51 ± 0.27 | -2.94 ± 0.33
CAAUAGCAAUAUUACGUGUA | -3.98 ± 0.18 | -2.29 ± 0.11
UCCUAGCAAUAUUACGGGUG | -0.384 ± 0.07 | 0.124 ± 0.087
CGUCAGCAAUAUUACGCCUC | – | -3.1 ± 0.34
AAAUAGCAAUAUUACGAAGU | -2.55 ± 0.18 | -2.16 ± 0.2
GUCCAGCAAUAUUACGCAUA | -0.663 ± 0.091 | -0.0806 ± 0.094
GCUAAGCAAUAUUACGGAUA | -2.45 ± 0.24 | -0.375 ± 0.18
AGACAGCAAUAUUACGUGCG | -0.833 ± 0.077 | -0.653 ± 0.083
CAACAGCAAUAUUACGCCGU | -4.14 ± 0.29 | -2.82 ± 0.38
AUCUAGCAAUAUUACGGGAU | -2.92 ± 0.2 | -2.28 ± 0.22
GGCUAGCAAUAUUACGUAAG | -1.64 ± 0.068 | -0.594 ± 0.094
GGCCAGCAAUAUUACGAACC | 0.576 ± 0.31 | -0.0497 ± 0.4
GGUUAGCAAUAUUACGCAGG | -3.31 ± 0.24 | -2.05 ± 0.2
GUUUAGCAAUAUUACGAAUC | – | -0.202 ± 0.45
UAACAGCAAUAUUACGAGAG | -3.21 ± 0.18 | -2.46 ± 0.13
GCCUAGCAAUAUUACGGAUA | -1.01 ± 0.17 | -0.705 ± 0.13
CAGUAGCAAUAUUACGAGAG | -3.95 ± 0.24 | -2.76 ± 0.19
GCCCAGCAAUAUUACGACUU | -1.45 ± 0.095 | -0.824 ± 0.1
CGGGAGCAAUAUUACGUCUU | – | -0.499 ± 0.36
UCCUAGCAAUAUUACGGCGU | -0.736 ± 0.087 | -0.557 ± 0.12
AUUCAGCAAUAUUACGUGAU | -0.92 ± 0.061 | -0.187 ± 0.078

Sequence | self-splicing fitness (ln) (30 °C) | self-splicing fitness (ln) (37 °C)
CUGUAGCAAUAUUACGACUU | -2.12 ± 0.21 | -1.36 ± 0.33
AGUAAGCAAUAUUACGGUAC | -2.95 ± 0.24 | -2.27 ± 0.31
AGGAAGCAAUAUUACGAUGC | -2.26 ± 0.17 | -1.04 ± 0.22
GGUAAGCAAUAUUACGGAUC | 0.0183 ± 0.15 | 0.125 ± 0.21
UGGGAGCAAUAUUACGUACA | -1.26 ± 0.22 | -0.889 ± 0.42
CCGGAGCAAUAUUACGAGGA | – | -1.96 ± 0.24
AGAUAGCAAUAUUACGGUCU | -2 ± 0.17 | -2.8 ± 0.22
GCUGAGCAAUAUUACGGGAG | -2.58 ± 0.35 | -2.15 ± 0.3
GCCCAGCAAUAUUACGCGUA | -0.753 ± 0.061 | -0.155 ± 0.064
CAGUAGCAAUAUUACGUCGU | -2.6 ± 0.17 | -2.44 ± 0.17
CUGCAGCAAUAUUACGGCAU | -0.953 ± 0.057 | -0.378 ± 0.071
CCAUAGCAAUAUUACGUCUA | -4.41 ± 0.34 | -2.47 ± 0.18
UCGAAGCAAUAUUACGGCGA | -0.741 ± 0.12 | -0.539 ± 0.17
CUGAAGCAAUAUUACGUCCG | 0.226 ± 0.083 | 0.658 ± 0.13
ACAUAGCAAUAUUACGCCGU | -2.02 ± 0.17 | -1.23 ± 0.2
ACACAGCAAUAUUACGGCGA | -0.436 ± 0.086 | -0.165 ± 0.09
GAUUAGCAAUAUUACGACUC | -0.282 ± 0.13 | 0.2 ± 0.16
CUCUAGCAAUAUUACGUACU | -3.33 ± 0.27 | -2.39 ± 0.25
ACCUAGCAAUAUUACGCUCG | -1.43 ± 0.12 | -1.48 ± 0.14
GGCCAGCAAUAUUACGAAAU | -2.92 ± 0.34 | -1.04 ± 0.18
UAGAAGCAAUAUUACGCGGA | -1.64 ± 0.13 | -0.655 ± 0.11
UCGGAGCAAUAUUACGGAGC | – | -1.64 ± 0.4
ACGGAGCAAUAUUACGCCGG | -1.09 ± 0.38 | –
GCCGAGCAAUAUUACGCUGA | -1.88 ± 0.17 | -0.952 ± 0.13
UUCUAGCAAUAUUACGUGCC | -3.06 ± 0.36 | –

Sequence | self-splicing fitness (ln) (30 °C) | self-splicing fitness (ln) (37 °C)
UUUAAGCAAUAUUACGAAGC | -1.88 ± 0.32 | -0.328 ± 0.42
CAAAAGCAAUAUUACGAAUG | -1.18 ± 0.057 | -0.723 ± 0.076
UUCGAGCAAUAUUACGCGGU | -3.26 ± 0.2 | -1.17 ± 0.2
ACGGAGCAAUAUUACGAGCU | -3.64 ± 0.46 | -2.24 ± 0.32
UGAGAGCAAUAUUACGUACA | -2.02 ± 0.21 | -0.955 ± 0.26
GGUUAGCAAUAUUACGUGAC | -2.98 ± 0.28 | -2.33 ± 0.34
UGGCAGCAAUAUUACGCUCC | -2.19 ± 0.37 | –
UUCAAGCAAUAUUACGCUUC | -3.09 ± 0.22 | -2.8 ± 0.44
AAUGAGCAAUAUUACGGAUU | -2.38 ± 0.15 | -1.04 ± 0.16
AGGGAGCAAUAUUACGUAUG | -2.98 ± 0.3 | -2.37 ± 0.49
GAUAAGCAAUAUUACGGGGU | -3.97 ± 0.25 | -1.74 ± 0.16
ACUGAGCAAUAUUACGGUCC | – | -2.26 ± 0.33
AGUAAGCAAUAUUACGCCUU | -1.74 ± 0.12 | -0.241 ± 0.14
AUGUAGCAAUAUUACGAUGC | -1.49 ± 0.11 | -0.827 ± 0.16
UACAAGCAAUAUUACGACUG | -0.079 ± 0.063 | 0.278 ± 0.092
CAUAAGCAAUAUUACGGCUC | -2.88 ± 0.44 | -1.88 ± 0.43
CGACAGCAAUAUUACGGGUC | -4.52 ± 0.32 | -3.14 ± 0.29
AUCCAGCAAUAUUACGGUAG | -3.97 ± 0.2 | -2.6 ± 0.15
UACGAGCAAUAUUACGCUGU | -2.78 ± 0.28 | -1.47 ± 0.39
UCCAAGCAAUAUUACGUAAG | -4.14 ± 0.3 | -2.37 ± 0.21
GGGCAGCAAUAUUACGGAGA | -4.44 ± 0.46 | -2.56 ± 0.22
GCCAAGCAAUAUUACGAAUU | -3.39 ± 0.13 | -1.51 ± 0.1
ACUCAGCAAUAUUACGCGUU | -1.91 ± 0.055 | -1.18 ± 0.072
AAGGAGCAAUAUUACGAUCA | -1.18 ± 0.36 | –
CUCAAGCAAUAUUACGUGCC | -2.96 ± 0.11 | -2.29 ± 0.17

Sequence | self-splicing fitness (ln) (30 °C) | self-splicing fitness (ln) (37 °C)
GUUCAGCAAUAUUACGUACA | -1.13 ± 0.11 | -0.94 ± 0.11
CGCAAGCAAUAUUACGACAG | -0.409 ± 0.083 | 0.344 ± 0.13
GCACAGCAAUAUUACGCAGG | -3.5 ± 0.18 | -2.74 ± 0.18
GCUUAGCAAUAUUACGUGUC | -1.23 ± 0.14 | -0.348 ± 0.14
UGUGAGCAAUAUUACGUAGA | – | -0.751 ± 0.44
AGACAGCAAUAUUACGAAAA | – | -1.44 ± 0.29
GUUGAGCAAUAUUACGGGUG | -3.62 ± 0.38 | -2.85 ± 0.47
ACCCAGCAAUAUUACGGGGU | -3.58 ± 0.14 | -3 ± 0.14
AGCGAGCAAUAUUACGGUUG | -2.69 ± 0.24 | -2.05 ± 0.21
CCAUAGCAAUAUUACGCGGA | -2.87 ± 0.16 | -2.26 ± 0.17
AUAUAGCAAUAUUACGUACC | -1.41 ± 0.2 | -0.927 ± 0.28
GGCAAGCAAUAUUACGCCAC | -3.87 ± 0.43 | –
UGAGAGCAAUAUUACGAUCG | -2.1 ± 0.13 | -2.12 ± 0.17
UAACAGCAAUAUUACGGGGA | -2.36 ± 0.15 | -2.1 ± 0.097
UGGAAGCAAUAUUACGUCCC | -0.397 ± 0.19 | 0.402 ± 0.22
CCUGAGCAAUAUUACGAAAG | -2.39 ± 0.22 | -2.08 ± 0.23
CCUCAGCAAUAUUACGUUUG | -1.46 ± 0.093 | -2.15 ± 0.14
GCAGAGCAAUAUUACGAGCA | -2.32 ± 0.24 | -2.4 ± 0.34
CCAAAGCAAUAUUACGGACU | -2.27 ± 0.13 | -2.84 ± 0.22
GCAAAGCAAUAUUACGGCGG | -1.18 ± 0.13 | -2.07 ± 0.2
CGAGAGCAAUAUUACGGGCU | -3.67 ± 0.22 | -2.18 ± 0.28
UUCGAGCAAUAUUACGUAUG | -2.17 ± 0.13 | -2.49 ± 0.19
UUAGAGCAAUAUUACGGCAC | -3.59 ± 0.38 | -1.95 ± 0.38
UCUUAGCAAUAUUACGGACG | -2.42 ± 0.3 | –

From the supplement of paper PMC7877785
